In the MegaScale stability set (Tsuboyama et al. 2023):

B1: 2M8U (parent)
chain: TKAQVIEAFKVFDRDGNGYVTVDYLRKVLNELGDMMPADEIEEMIYEADPQNSGYVQYETFVGMLFL

Variants of: B1
Assay: folding stability dG (cDNA display proteolysis); higher = more stable
Conditions: PBS, room temperature

| Variant | folding stability dG [kcal/mol] |
| --- | --- |
| TKSQVIEAFKVFDRDGNGYVTVDYLRKVLNELGDMMPADEIEEMIYEADPQNSGYVQYETFVGMLFL [A3S] | 3.46 |
| TKTQVIEAFKVFDRDGNGYVTVDYLRKVLNELGDMMPADEIEEMIYEADPQNSGYVQYETFVGMLFL [A3T] | 3.14 |
| TKVQVIEAFKVFDRDGNGYVTVDYLRKVLNELGDMMPADEIEEMIYEADPQNSGYVQYETFVGMLFL [A3V] | 3.2 |
| TKWQVIEAFKVFDRDGNGYVTVDYLRKVLNELGDMMPADEIEEMIYEADPQNSGYVQYETFVGMLFL [A3W] | 2.9 |
| TKYQVIEAFKVFDRDGNGYVTVDYLRKVLNELGDMMPADEIEEMIYEADPQNSGYVQYETFVGMLFL [A3Y] | 2.81 |
| TKAAVIEAFKVFDRDGNGYVTVDYLRKVLNELGDMMPADEIEEMIYEADPQNSGYVQYETFVGMLFL [Q4A] | 3.53 |
| TKACVIEAFKVFDRDGNGYVTVDYLRKVLNELGDMMPADEIEEMIYEADPQNSGYVQYETFVGMLFL [Q4C] | 3.56 |
| TKADVIEAFKVFDRDGNGYVTVDYLRKVLNELGDMMPADEIEEMIYEADPQNSGYVQYETFVGMLFL [Q4D] | 3.28 |
| TKAEVIEAFKVFDRDGNGYVTVDYLRKVLNELGDMMPADEIEEMIYEADPQNSGYVQYETFVGMLFL [Q4E] | 3.41 |
| TKAFVIEAFKVFDRDGNGYVTVDYLRKVLNELGDMMPADEIEEMIYEADPQNSGYVQYETFVGMLFL [Q4F] | 2.87 |
| TKAGVIEAFKVFDRDGNGYVTVDYLRKVLNELGDMMPADEIEEMIYEADPQNSGYVQYETFVGMLFL [Q4G] | 2.99 |
| TKAHVIEAFKVFDRDGNGYVTVDYLRKVLNELGDMMPADEIEEMIYEADPQNSGYVQYETFVGMLFL [Q4H] | 3.12 |
| TKAIVIEAFKVFDRDGNGYVTVDYLRKVLNELGDMMPADEIEEMIYEADPQNSGYVQYETFVGMLFL [Q4I] | 3.15 |
| TKAKVIEAFKVFDRDGNGYVTVDYLRKVLNELGDMMPADEIEEMIYEADPQNSGYVQYETFVGMLFL [Q4K] | 3.38 |
| TKALVIEAFKVFDRDGNGYVTVDYLRKVLNELGDMMPADEIEEMIYEADPQNSGYVQYETFVGMLFL [Q4L] | 3.21 |
| TKAMVIEAFKVFDRDGNGYVTVDYLRKVLNELGDMMPADEIEEMIYEADPQNSGYVQYETFVGMLFL [Q4M] | 3.31 |
| TKANVIEAFKVFDRDGNGYVTVDYLRKVLNELGDMMPADEIEEMIYEADPQNSGYVQYETFVGMLFL [Q4N] | 3.09 |
| TKAPVIEAFKVFDRDGNGYVTVDYLRKVLNELGDMMPADEIEEMIYEADPQNSGYVQYETFVGMLFL [Q4P] | 2.35 |
| TKARVIEAFKVFDRDGNGYVTVDYLRKVLNELGDMMPADEIEEMIYEADPQNSGYVQYETFVGMLFL [Q4R] | 3.34 |
| TKASVIEAFKVFDRDGNGYVTVDYLRKVLNELGDMMPADEIEEMIYEADPQNSGYVQYETFVGMLFL [Q4S] | 3.47 |
| TKATVIEAFKVFDRDGNGYVTVDYLRKVLNELGDMMPADEIEEMIYEADPQNSGYVQYETFVGMLFL [Q4T] | 3.04 |
| TKAVVIEAFKVFDRDGNGYVTVDYLRKVLNELGDMMPADEIEEMIYEADPQNSGYVQYETFVGMLFL [Q4V] | 3.02 |
| TKAWVIEAFKVFDRDGNGYVTVDYLRKVLNELGDMMPADEIEEMIYEADPQNSGYVQYETFVGMLFL [Q4W] | 3.08 |
| TKAYVIEAFKVFDRDGNGYVTVDYLRKVLNELGDMMPADEIEEMIYEADPQNSGYVQYETFVGMLFL [Q4Y] | 2.97 |
| TKAQAIEAFKVFDRDGNGYVTVDYLRKVLNELGDMMPADEIEEMIYEADPQNSGYVQYETFVGMLFL [V5A] | 2.77 |
| TKAQCIEAFKVFDRDGNGYVTVDYLRKVLNELGDMMPADEIEEMIYEADPQNSGYVQYETFVGMLFL [V5C] | 3.17 |
| TKAQDIEAFKVFDRDGNGYVTVDYLRKVLNELGDMMPADEIEEMIYEADPQNSGYVQYETFVGMLFL [V5D] | 1.89 |

| Variant | folding stability dG [kcal/mol] |
| --- | --- |
| TKAQEIEAFKVFDRDGNGYVTVDYLRKVLNELGDMMPADEIEEMIYEADPQNSGYVQYETFVGMLFL [V5E] | 1.95 |
| TKAQFIEAFKVFDRDGNGYVTVDYLRKVLNELGDMMPADEIEEMIYEADPQNSGYVQYETFVGMLFL [V5F] | 3.59 |
| TKAQGIEAFKVFDRDGNGYVTVDYLRKVLNELGDMMPADEIEEMIYEADPQNSGYVQYETFVGMLFL [V5G] | 1.89 |
| TKAQHIEAFKVFDRDGNGYVTVDYLRKVLNELGDMMPADEIEEMIYEADPQNSGYVQYETFVGMLFL [V5H] | 2.36 |
| TKAQIIEAFKVFDRDGNGYVTVDYLRKVLNELGDMMPADEIEEMIYEADPQNSGYVQYETFVGMLFL [V5I] | 3.81 |
| TKAQKIEAFKVFDRDGNGYVTVDYLRKVLNELGDMMPADEIEEMIYEADPQNSGYVQYETFVGMLFL [V5K] | 1.82 |
| TKAQLIEAFKVFDRDGNGYVTVDYLRKVLNELGDMMPADEIEEMIYEADPQNSGYVQYETFVGMLFL [V5L] | 3.95 |
| TKAQMIEAFKVFDRDGNGYVTVDYLRKVLNELGDMMPADEIEEMIYEADPQNSGYVQYETFVGMLFL [V5M] | 3.85 |
| TKAQNIEAFKVFDRDGNGYVTVDYLRKVLNELGDMMPADEIEEMIYEADPQNSGYVQYETFVGMLFL [V5N] | 2.04 |
| TKAQPIEAFKVFDRDGNGYVTVDYLRKVLNELGDMMPADEIEEMIYEADPQNSGYVQYETFVGMLFL [V5P] | 1.77 |
| TKAQQIEAFKVFDRDGNGYVTVDYLRKVLNELGDMMPADEIEEMIYEADPQNSGYVQYETFVGMLFL [V5Q] | 2.09 |
| TKAQRIEAFKVFDRDGNGYVTVDYLRKVLNELGDMMPADEIEEMIYEADPQNSGYVQYETFVGMLFL [V5R] | 1.91 |
| TKAQSIEAFKVFDRDGNGYVTVDYLRKVLNELGDMMPADEIEEMIYEADPQNSGYVQYETFVGMLFL [V5S] | 2.1 |
| TKAQTIEAFKVFDRDGNGYVTVDYLRKVLNELGDMMPADEIEEMIYEADPQNSGYVQYETFVGMLFL [V5T] | 2.49 |
| TKAQWIEAFKVFDRDGNGYVTVDYLRKVLNELGDMMPADEIEEMIYEADPQNSGYVQYETFVGMLFL [V5W] | 4.09 |
| TKAQYIEAFKVFDRDGNGYVTVDYLRKVLNELGDMMPADEIEEMIYEADPQNSGYVQYETFVGMLFL [V5Y] | 4.08 |
| TKAQVAEAFKVFDRDGNGYVTVDYLRKVLNELGDMMPADEIEEMIYEADPQNSGYVQYETFVGMLFL [I6A] | 2.25 |
| TKAQVCEAFKVFDRDGNGYVTVDYLRKVLNELGDMMPADEIEEMIYEADPQNSGYVQYETFVGMLFL [I6C] | 3.4 |
| TKAQVDEAFKVFDRDGNGYVTVDYLRKVLNELGDMMPADEIEEMIYEADPQNSGYVQYETFVGMLFL [I6D] | 2.38 |
| TKAQVEEAFKVFDRDGNGYVTVDYLRKVLNELGDMMPADEIEEMIYEADPQNSGYVQYETFVGMLFL [I6E] | 2.81 |
| TKAQVFEAFKVFDRDGNGYVTVDYLRKVLNELGDMMPADEIEEMIYEADPQNSGYVQYETFVGMLFL [I6F] | 2.6 |
| TKAQVGEAFKVFDRDGNGYVTVDYLRKVLNELGDMMPADEIEEMIYEADPQNSGYVQYETFVGMLFL [I6G] | 2.34 |
| TKAQVHEAFKVFDRDGNGYVTVDYLRKVLNELGDMMPADEIEEMIYEADPQNSGYVQYETFVGMLFL [I6H] | 2.76 |
| TKAQVKEAFKVFDRDGNGYVTVDYLRKVLNELGDMMPADEIEEMIYEADPQNSGYVQYETFVGMLFL [I6K] | 2.38 |
| TKAQVLEAFKVFDRDGNGYVTVDYLRKVLNELGDMMPADEIEEMIYEADPQNSGYVQYETFVGMLFL [I6L] | 3.66 |
| TKAQVMEAFKVFDRDGNGYVTVDYLRKVLNELGDMMPADEIEEMIYEADPQNSGYVQYETFVGMLFL [I6M] | 3.42 |
| TKAQVNEAFKVFDRDGNGYVTVDYLRKVLNELGDMMPADEIEEMIYEADPQNSGYVQYETFVGMLFL [I6N] | 2.55 |

| Variant | folding stability dG [kcal/mol] |
| --- | --- |
| TKAQVPEAFKVFDRDGNGYVTVDYLRKVLNELGDMMPADEIEEMIYEADPQNSGYVQYETFVGMLFL [I6P] | 1.65 |
| TKAQVQEAFKVFDRDGNGYVTVDYLRKVLNELGDMMPADEIEEMIYEADPQNSGYVQYETFVGMLFL [I6Q] | 2.31 |
| TKAQVREAFKVFDRDGNGYVTVDYLRKVLNELGDMMPADEIEEMIYEADPQNSGYVQYETFVGMLFL [I6R] | 2.46 |
| TKAQVSEAFKVFDRDGNGYVTVDYLRKVLNELGDMMPADEIEEMIYEADPQNSGYVQYETFVGMLFL [I6S] | 2.25 |
| TKAQVTEAFKVFDRDGNGYVTVDYLRKVLNELGDMMPADEIEEMIYEADPQNSGYVQYETFVGMLFL [I6T] | 2.72 |
| TKAQVVEAFKVFDRDGNGYVTVDYLRKVLNELGDMMPADEIEEMIYEADPQNSGYVQYETFVGMLFL [I6V] | 2.86 |
| TKAQVWEAFKVFDRDGNGYVTVDYLRKVLNELGDMMPADEIEEMIYEADPQNSGYVQYETFVGMLFL [I6W] | 2.18 |
| TKAQVYEAFKVFDRDGNGYVTVDYLRKVLNELGDMMPADEIEEMIYEADPQNSGYVQYETFVGMLFL [I6Y] | 2.56 |
| TKAQVIAAFKVFDRDGNGYVTVDYLRKVLNELGDMMPADEIEEMIYEADPQNSGYVQYETFVGMLFL [E7A] | 3.46 |
| TKAQVICAFKVFDRDGNGYVTVDYLRKVLNELGDMMPADEIEEMIYEADPQNSGYVQYETFVGMLFL [E7C] | 3.41 |
| TKAQVIDAFKVFDRDGNGYVTVDYLRKVLNELGDMMPADEIEEMIYEADPQNSGYVQYETFVGMLFL [E7D] | 3.41 |
| TKAQVIFAFKVFDRDGNGYVTVDYLRKVLNELGDMMPADEIEEMIYEADPQNSGYVQYETFVGMLFL [E7F] | 2.86 |
| TKAQVIGAFKVFDRDGNGYVTVDYLRKVLNELGDMMPADEIEEMIYEADPQNSGYVQYETFVGMLFL [E7G] | 2.87 |
| TKAQVIHAFKVFDRDGNGYVTVDYLRKVLNELGDMMPADEIEEMIYEADPQNSGYVQYETFVGMLFL [E7H] | 2.93 |
| TKAQVIIAFKVFDRDGNGYVTVDYLRKVLNELGDMMPADEIEEMIYEADPQNSGYVQYETFVGMLFL [E7I] | 3.07 |
| TKAQVIKAFKVFDRDGNGYVTVDYLRKVLNELGDMMPADEIEEMIYEADPQNSGYVQYETFVGMLFL [E7K] | 3.1 |
| TKAQVILAFKVFDRDGNGYVTVDYLRKVLNELGDMMPADEIEEMIYEADPQNSGYVQYETFVGMLFL [E7L] | 3.28 |
| TKAQVIMAFKVFDRDGNGYVTVDYLRKVLNELGDMMPADEIEEMIYEADPQNSGYVQYETFVGMLFL [E7M] | 3.13 |
| TKAQVINAFKVFDRDGNGYVTVDYLRKVLNELGDMMPADEIEEMIYEADPQNSGYVQYETFVGMLFL [E7N] | 3.17 |
| TKAQVIPAFKVFDRDGNGYVTVDYLRKVLNELGDMMPADEIEEMIYEADPQNSGYVQYETFVGMLFL [E7P] | 1.91 |
| TKAQVIQAFKVFDRDGNGYVTVDYLRKVLNELGDMMPADEIEEMIYEADPQNSGYVQYETFVGMLFL [E7Q] | 2.96 |
| TKAQVIRAFKVFDRDGNGYVTVDYLRKVLNELGDMMPADEIEEMIYEADPQNSGYVQYETFVGMLFL [E7R] | 2.85 |
| TKAQVISAFKVFDRDGNGYVTVDYLRKVLNELGDMMPADEIEEMIYEADPQNSGYVQYETFVGMLFL [E7S] | 2.76 |
| TKAQVITAFKVFDRDGNGYVTVDYLRKVLNELGDMMPADEIEEMIYEADPQNSGYVQYETFVGMLFL [E7T] | 2.53 |
| TKAQVIVAFKVFDRDGNGYVTVDYLRKVLNELGDMMPADEIEEMIYEADPQNSGYVQYETFVGMLFL [E7V] | 3.08 |
| TKAQVIWAFKVFDRDGNGYVTVDYLRKVLNELGDMMPADEIEEMIYEADPQNSGYVQYETFVGMLFL [E7W] | 2.42 |
